Read-outs that look alike come from different tables or passages of the source.
Columns and labels:
[1] = biological target: Recombinant Human IL-17A, Sino Biological, 12047-HNAS (human) (UniProt Q16552); experiment: cell-based or functional assay
[2] = biological target: Recombinant Human IL-17A, Sino Biological, 12047-HNAS (human) (UniProt Q16552); experiment: SPR (Biacore), antibody captured by anti-human antibody on the chip, IL-17A as analyte, 1:1 model
[3] = biological target: Recombinant Human IL-17A, Sino Biological, 12047-HNAS (human) (UniProt Q16552); experiment: indirect ELISA, human IL-17A coated
[4] = biological target: Recombinant Human IL-17A, Sino Biological, 12047-HNAS (human) (UniProt Q16552); experiment: indirect ELISA, human IL-17A coated; remark: listed apart in the source

Sequence of Recombinant Human IL-17A, Sino Biological, 12047-HNAS (human) (Q16552 24-155 limits assumed, form in doubt): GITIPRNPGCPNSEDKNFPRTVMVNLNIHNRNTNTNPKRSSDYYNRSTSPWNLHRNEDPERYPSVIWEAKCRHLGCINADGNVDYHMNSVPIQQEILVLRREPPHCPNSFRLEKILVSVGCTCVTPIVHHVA

IC50 of IL-6 release by HT1080 cells stimulated with IL-17A and TNFα [1]: 0.52 µg/mL | IC80 of IL-6 release by HT1080 cells stimulated with IL-17A and TNFα [1]: 2.11 µg/mL | IC90 of IL-6 release by HT1080 cells stimulated with IL-17A and TNFα [1]: 4.8 µg/mL | Kd [2]: 0.111 nM | koff [2]: 0.000161 s⁻¹ | kon [2]: 1.46e+06 M⁻¹ s⁻¹ | EC50 [3]: 0.0329 µg/mL | EC50 [4]: 0.0341 µg/mL
Substance: Novartis humanized anti-IL-17 antibody (Novartis mAb)
